Values quoted from earlier work, collected in article PMC7396566.

What was measured:
[1] = target: TSLP:TSLPR complex (Homo sapiens) (UniProt Q969D9)
TSLP (Homo sapiens) = TSLP (Homo sapiens) (UniProt Q969D9)
IL-7Rα (Homo sapiens) = IL-7Rα (Homo sapiens) (UniProt P16871)

Chain of TSLPR (Q9HC73 23-231): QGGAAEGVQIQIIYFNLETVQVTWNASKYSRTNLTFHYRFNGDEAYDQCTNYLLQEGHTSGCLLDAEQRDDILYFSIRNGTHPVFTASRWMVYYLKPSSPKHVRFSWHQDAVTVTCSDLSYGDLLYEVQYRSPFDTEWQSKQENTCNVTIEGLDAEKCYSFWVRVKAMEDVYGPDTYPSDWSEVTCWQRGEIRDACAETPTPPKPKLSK

In the case of IL-7Rα (from UniProt P16871), the Kd [1] is listed as 29 nM.

In the case of TSLPR (from UniProt Q9HC73), the Kd (TSLP (Homo sapiens)) is given as 32 nM and the Kd (IL-7Rα (Homo sapiens)) is given as 20000 nM.
